Experimental findings from article PMC7885793 (Biochemistry, 2019) are described below.

The target of assay [1] is T1, PLCβ3 ΔXY1 (Homo sapiens, UniProt Q01970 10-1234, ΔXY1 (residues 471–569)).
T1 sequence (looked up): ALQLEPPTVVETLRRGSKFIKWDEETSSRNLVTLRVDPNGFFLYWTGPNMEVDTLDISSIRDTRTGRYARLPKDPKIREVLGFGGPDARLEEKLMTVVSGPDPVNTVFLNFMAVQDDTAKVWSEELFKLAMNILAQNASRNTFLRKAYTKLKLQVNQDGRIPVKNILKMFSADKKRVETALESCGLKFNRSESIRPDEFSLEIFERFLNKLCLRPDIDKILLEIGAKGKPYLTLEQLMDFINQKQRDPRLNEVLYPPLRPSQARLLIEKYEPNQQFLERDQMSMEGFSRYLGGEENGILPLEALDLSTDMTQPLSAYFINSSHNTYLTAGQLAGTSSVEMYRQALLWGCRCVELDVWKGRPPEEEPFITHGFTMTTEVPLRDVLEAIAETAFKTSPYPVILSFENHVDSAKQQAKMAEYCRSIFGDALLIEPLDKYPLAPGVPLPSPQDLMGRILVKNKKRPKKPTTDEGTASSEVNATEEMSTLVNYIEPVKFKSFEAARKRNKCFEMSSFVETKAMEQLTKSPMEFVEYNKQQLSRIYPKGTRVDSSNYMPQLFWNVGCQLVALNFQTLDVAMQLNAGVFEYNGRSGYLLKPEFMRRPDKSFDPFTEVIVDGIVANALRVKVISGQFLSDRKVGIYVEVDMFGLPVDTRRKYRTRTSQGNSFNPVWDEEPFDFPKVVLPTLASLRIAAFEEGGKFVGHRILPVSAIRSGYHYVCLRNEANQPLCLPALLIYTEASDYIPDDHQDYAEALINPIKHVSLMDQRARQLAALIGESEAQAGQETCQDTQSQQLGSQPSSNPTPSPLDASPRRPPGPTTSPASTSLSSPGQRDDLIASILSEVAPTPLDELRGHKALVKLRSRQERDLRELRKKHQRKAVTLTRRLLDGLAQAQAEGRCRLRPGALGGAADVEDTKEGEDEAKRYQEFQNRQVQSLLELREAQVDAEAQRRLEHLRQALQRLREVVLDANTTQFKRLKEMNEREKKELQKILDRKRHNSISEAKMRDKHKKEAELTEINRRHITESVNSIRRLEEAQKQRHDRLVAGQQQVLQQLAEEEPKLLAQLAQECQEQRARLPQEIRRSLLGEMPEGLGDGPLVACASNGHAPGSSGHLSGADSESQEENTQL
Kind of assay: cell-based or functional assay.

For assay [2], the target named is T2, PLCβ3-Δ892 ΔXY1 (Homo sapiens, UniProt Q01970 10-892, ΔXY1 (residues 471–569)).
T2 sequence (looked up): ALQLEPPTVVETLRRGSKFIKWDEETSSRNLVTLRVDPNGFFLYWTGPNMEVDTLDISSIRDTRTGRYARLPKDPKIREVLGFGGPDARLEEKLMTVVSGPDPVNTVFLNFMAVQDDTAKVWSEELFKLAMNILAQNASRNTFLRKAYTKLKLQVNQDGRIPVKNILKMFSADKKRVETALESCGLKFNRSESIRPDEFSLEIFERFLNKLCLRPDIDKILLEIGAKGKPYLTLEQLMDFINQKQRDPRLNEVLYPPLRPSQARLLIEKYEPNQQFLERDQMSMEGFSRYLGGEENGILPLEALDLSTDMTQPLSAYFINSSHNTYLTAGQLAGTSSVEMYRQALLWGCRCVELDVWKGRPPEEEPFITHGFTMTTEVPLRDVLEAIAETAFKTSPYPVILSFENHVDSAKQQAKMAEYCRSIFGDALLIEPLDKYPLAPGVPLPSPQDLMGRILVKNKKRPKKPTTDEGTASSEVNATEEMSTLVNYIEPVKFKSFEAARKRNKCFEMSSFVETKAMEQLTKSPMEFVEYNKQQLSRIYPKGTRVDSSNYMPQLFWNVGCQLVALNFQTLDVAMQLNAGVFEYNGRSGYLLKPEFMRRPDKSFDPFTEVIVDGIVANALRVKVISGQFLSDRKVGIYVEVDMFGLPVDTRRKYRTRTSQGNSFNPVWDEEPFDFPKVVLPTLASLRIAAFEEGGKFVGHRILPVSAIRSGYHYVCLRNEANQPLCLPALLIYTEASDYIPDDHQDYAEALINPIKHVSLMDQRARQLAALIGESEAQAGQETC
The assay is described as follows: cell-based or functional assay.

B1: Activated Gαq (Gαq·GDP-ALF4^−) (natural protein, murine, UniProt P21279 7-359, looked up)
chain: MACCLSEEAKEARRINDEIERQLRRDKRDARRELKLLLLGTGESGKSTFIKQMRIIHGSGYSDEDKRGFTKLVYQNIFTAMQAMIRAMDTLKIPYKYEHNKAHAQLVREVDVEKVSAFENPYVDAIKSLWNDPGIQECYDRRREYQLSDSTKYYLNDLDRVADPSYLPTQQDVLRVRVPTTGIIEYPFDLQSVIFRMVDVGGQRSERRKWIHCFENVTSIMFLVALSEYDQVLVESDNENRMEESKALFRTIITYPWFQNSSVILFLNKKDLLEEKIMYSHLVDYFPEYDGPQRDAQAAREFILKMFVDLNPDSDKIIYSHFTCATDTENIRFVFAAVKDTILQLNLKEYNLV
Take B1: the “x-fold maximum activity over basal (complex against the PLCβ3 variant alone)” value in assay [1] was 4 x-fold; in assay [2] it was 2 x-fold.
